Percent reduction of binding with 50 µM heparin and Kd data for 1 substance are collected here from article PMC3785480.

Test [1] deals with recombinant BB0347 (Borrelia burgdorferi). Kind of test: ELISA.
Test [2] shares this target. Kind of test: ELISA; Figure 5, rBB0347 with full-length Fn; which protein was coated is not told; KD = concentration of added protein at half-maximal binding, assuming saturation. A general note: ELISA stands for enzyme-linked immunosorbent assay.

As for “human fibronectin (from UniProt P02751 32-2477) (natural protein)”, in test [1], the percent reduction of binding with 50 µM heparin was 40%. The Kd in test [2] came to 200 nM.

The Kd is the constant that tells how readily two partners part at equilibrium.
